# B1: Fc/YTE (human IgG1 Fc fragment containing the M252Y/S254T/T256E triple substitution) (other)
# chain: GGPSVFLFPPKPKDTLYITREPEVTCVVVDVSHEDPEVKFNWYVDGVEVHNAKTKPREEQYNSTYRVVSVLTVLHQDWLNGKEYKCKVSNKALPAPIEKTISKAKGQPREPQVYTLPPSREEMTKNQVSLTCLVKGFYPSDIAVEWESNGQPENNYKTTPPVLDSDGSFFLYSKLTVDKSRWQQGNVFSCSVMHEALHNHYTQKSLSLS
# modifications: one branched N-linked carbohydrate chain attached to N297 (EU numbering)
# notes: Fc portion (heavy chain residues 223-447, EU) of MEDI-524 with M252Y/S254T/T256E, expressed in HEK 293 cells; It consists of two chemically identical polypeptides with at least one interchain disulfide at C226 and/or C229; In the assay it was amine-coupled to a CM5 chip; also called human IgG Fc variant; YTE-modified human Fc
# Key:
# [1] = target: T1, Human FcRn (soluble human neonatal Fc receptor) (human, UniProt P55899 24-290; P61769 21-119, limits assumed); assay: SPR (BIAcore 3000), ratio of steady-state Kd values, pH 6.0
# T1 construct: also called soluble human FcRn
# Text: (§1) The interaction of soluble human FcRn with immobilized unmutated human Fc and Fc/YTE was monitored by surface plasmon resonance detection using a BIAcore 3000 instrument (GE Healthcare, Piscataway, N.J.). Unmutated human Fc and Fc/YTE were first coupled to the dextran matrix of a CM5 sensor chip (GE Healthcare) using an Amine Coupling Kit at a surface density of between 4139 and 4291 RU according to the manufacturer's instructions. Human FcRn was used in equilibrium binding experiments at concentrations ranging from 1.46 nM to 3 uM at a flow rate of 5 uL/min. Dilutions and binding experiments were carried out at 25° C. in phosphate buffered saline (PBS), pH 6.0 containing 0.05% Tween 20. Steady-state binding data were collected for 50 min. Both Fc surfaces were regenerated with six 1-min injection of PBS, pH 7.4 containing 0.05% Tween 20. Human FcRn was also allowed to flow over an uncoated cell. The sensorgrams from these blank runs were then subtracted from those obtained with Fc-coupled chips. Dissociation constants (Kds) were determined by fitting the corresponding binding isotherms.
# [2] = target: T1, Human FcRn (soluble human neonatal Fc …); assay: SPR (BIAcore 3000), Fc amine-coupled to CM5 chip, soluble human FcRn 1.46 nM to 3 uM, steady-state binding isotherm, PBS pH 6.0 with 0.05% Tween 20, 25 C; error is SD of 2 experiments
# Text: as §1
# ^a Affinity measurements were carried out by BIAcore as described in Materials and Methods. Errors were estimated as the standard deviations of 2 independent experiments for each interacting pair.
# T1 sequence (P55899 24-290 limits assumed, chain 1 of 2): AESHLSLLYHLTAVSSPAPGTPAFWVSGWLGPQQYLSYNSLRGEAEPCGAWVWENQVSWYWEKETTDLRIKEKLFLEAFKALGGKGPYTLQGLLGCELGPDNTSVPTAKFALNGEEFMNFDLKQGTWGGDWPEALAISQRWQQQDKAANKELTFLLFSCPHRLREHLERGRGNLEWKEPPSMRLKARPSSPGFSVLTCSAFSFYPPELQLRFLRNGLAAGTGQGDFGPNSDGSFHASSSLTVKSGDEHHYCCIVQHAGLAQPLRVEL
# T1 sequence (P61769 21-119 limits assumed, chain 2 of 2): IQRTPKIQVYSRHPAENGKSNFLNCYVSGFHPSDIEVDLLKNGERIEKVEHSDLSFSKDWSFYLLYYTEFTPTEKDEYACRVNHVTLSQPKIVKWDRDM
binder,measurement,setting,value
B1,fold higher binding affinity than the unmutated human Fc,[1],~8 fold
same,Kd,[2],72 nM

# Reference: patent US20110288276A1 (AstraZeneca / MedImmune, published 2011)
